Laboratory results as given in patent publication US20060067886A1, “Gastrin receptor-avid peptide conjugates” (priority 1997, published 2006).
Like-named read-outs stand apart in the source and are kept apart here.

Columns and labels:
[1] = biological target: T1, GRP receptors on Swiss 3T3 cells (Mus musculus, UniProt P21729); experiment: Competitive cell binding vs 125I-Tyr4-BBN, Swiss 3T3 cells
T1 construct: endogenous in cells; host or cells: Swiss 3T3 mouse fibroblasts (whole cells)
Protocol: The binding affinities of the synthetic BBN derivatives were assessed for GRP receptors on Swiss 3T3 cells and, in some cases, on a variety of human cancer cell lines, that express GRP receptors. […] The cell binding assay methods used to measure the IC50's is standard and used techniques previously reported [Jensen et al., 1993; Cai et al., 1994; Cai et al., 1992]. The methods used for determining IC50's for all GRP receptor binding compounds on all cell lines was similar. The specific method used to measure IC50's on Swiss 3T3 cells is briefly described as follows:
(§1) Swiss 3T3 mouse fibroblasts are grown to confluence in 48 well microtiter plates. […] The growth media was removed, the cells were washed twice with incubation media, and incubation media was returned to the cells. ^125I-Tyr4-BBN (0.01 uCi) was added to each well in the presence of increasing concentrations of the appropriate competitive peptide. Typical concentrations of displacing peptide ranged from 10-12 to 10-5 moles of displacing ligand per well. The cells were incubated at 37° C. for forty minutes in a 95% […]/5% CO2 humidified environment. At forty minutes post initiation of the incubation, the medium was discarded, and the cells were washed twice with cold incubation media. The cells were harvested from the wells following incubation in a trypsin/EDTA solution for five minutes at 37° C. Subsequently, the radioactivity, per well, was determined and the maximum % total uptake of the radiolabeled peptide was determined and normalized to 100%.
The binding affinities of the synthetic BBN derivatives were assessed for GRP receptors on Swiss 3T3 cells, PC-3 cells and CF PAC-1 cells. The IC50's of each of derivative were determined relative to (i.e., in competition with) ^125I-Tyr^4-BBN. The cell binding assay methods used to measure the IC50's is standard and was used by techniques previously reported [Jensen et al., 1993; Cai et al., 1992; Cai et al., 1994]. The methods used for determining IC50's with all BBN analogue binding to GRP receptors present on all three cell lines were similar. The specific method used to measure IC50's on Swiss 3T3 cells, is briefly described as follows:
as §1, with “microliter” for “microtiter”, “^125I-Tyr^4-BBN” for “^125I-Tyr4-BBN”, “μCi)” for “uCi)”, “10^−12” for “10-12”, “10^−5” for “10-5”, “100%. A similar procedure was used in performing cell binding assays with both the PC-3 and CFa-PAC-1 human cancer cell lines.” for “100%.”

[2] = biological target: T2, GRP receptors on CF PAC-1 cells (Homo sapiens, UniProt P30550); experiment: Competitive cell binding vs 125I-Tyr4-BBN, CF PAC-1 cells
T2 construct: two different human cancer cell lines that express GRP receptors (i.e., CF-PAC1 and PC-3 cell lines); endogenous in cells; host or cells: CFPAC-1 human pancreatic cancer cells (whole cells)
T2 sequence (P30550 whole entry): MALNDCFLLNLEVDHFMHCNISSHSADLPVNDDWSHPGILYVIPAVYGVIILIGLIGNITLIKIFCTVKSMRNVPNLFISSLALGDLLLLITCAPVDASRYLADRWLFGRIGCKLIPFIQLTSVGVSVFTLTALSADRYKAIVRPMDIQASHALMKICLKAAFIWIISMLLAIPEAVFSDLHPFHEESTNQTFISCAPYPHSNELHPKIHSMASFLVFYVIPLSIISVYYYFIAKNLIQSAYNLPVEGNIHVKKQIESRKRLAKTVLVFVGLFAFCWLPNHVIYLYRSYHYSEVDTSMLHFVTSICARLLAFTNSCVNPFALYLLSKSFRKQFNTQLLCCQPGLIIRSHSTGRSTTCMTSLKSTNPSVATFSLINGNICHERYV

[3] = biological target: T3, GRP receptors on PC-3 cells (Homo sapiens, UniProt P30550); experiment: Competitive cell binding vs 125I-Tyr4-BBN, PC-3 cells
T3 construct: two different human cancer cell lines that express GRP receptors (i.e., CF-PAC1 and PC-3 cell lines); host or cells: PC-3 human prostate cancer cells (whole cells)
T3 sequence (P30550 whole entry): as above

[4] = tested on: MDA-MB-231 human tumor xenografts;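 also: SCID mice bearing bilateral flank PC-3 or MDA-MB-231 xenografts, tail-vein dosing, organs sampled from 15 min to 72 h post-injection, radioactivity measured with NaI well counter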
[5] = Biodistribution of radiometal-DOTA-BBN conjugates in CF1 normal mice; details: 1 hour post-injection
[6] = tested on: PC-3 human tumor xenografts; experiment: in vivo
Protocol: In vivo pharmacokinetic studies in human tumor bearing SCID mice. […] The xenograft models were produced by bilateral flank inoculation of 5×10^6 cells (PC-3 or MDA-MB-231 cells) per site. Four to six weeks post inoculation, palpable tumors were observed. At this point, the mice were injected with 4 μCi of the complex in […] of isotonic saline via the tail vein. The mice were euthanized and tissues and organs were excised from the animals at selected times post-injection (p.i.), including 15 minutes, 30 minutes, 1 hour, 4 hours, 24 hours, 48 hours, and 72 hours p.i. Subsequently, the tissues and organs were weighed and counted in a NaI well counter and the percent injected dose (% ID) and % ID/g of each organ or tissue calculated.
The mice were injected with 4 μCi of the complex in 100 μL of isotonic saline via the tail vein. The mice were euthanized by cervical dislocation. Tissues and organs were excised from the animals following at 1 hour, 4 hour, and 24 hours post-injection (p.i.). Subsequently, the tissues and organs were weighed and counted in a NaI well counter and the percent injected dose (% ID) and % ID/g of each organ or tissue calculated.

[7] = tested on: Swiss 3T3 cells; experiment: Internalization and efflux, Swiss 3T3 cells; format: cell-based, mouse; details: sixty minutes / one hour post-washing
Protocol: After establishment of equilibrium after a forty minute incubation, the media surrounding the cells was removed and the cells were washed with fresh media containing no radioactivity. […] The cells were then incubated in a 0.2M acetic acid solution (pH 2.5) which caused the surface proteins (incl., GRP receptors) to denature and release all surface bound radioactive materials. After removing this buffer and washing, the cells were counted again.
To determine intracellular retention, a similar method was employed. […] FIG. 12 is a graph of results of efflux experiments using Swiss 3T3 cells with ^125I-Lys^3-BBN.

[8] = tested on: PC-3 cells; experiment: Internalization and efflux of In-DOTA-8-Aoc-BBN in PC-3 cells; format: cell-based, human
Protocol: Internalization and efflux studies. […] The percent of cell-associated activity as a function of time (in the incubating medium at 37° C.) was determined. The percentage radioactivity trapped in the cells was determined after removing activity bound to the surface of the cells by washing with a pH-2.5 (0.2M acetic acid and 0.5M NaCl) buffer 1, 2, 3 and 4 hours afterwards.

T1 sequence (P21729 whole entry): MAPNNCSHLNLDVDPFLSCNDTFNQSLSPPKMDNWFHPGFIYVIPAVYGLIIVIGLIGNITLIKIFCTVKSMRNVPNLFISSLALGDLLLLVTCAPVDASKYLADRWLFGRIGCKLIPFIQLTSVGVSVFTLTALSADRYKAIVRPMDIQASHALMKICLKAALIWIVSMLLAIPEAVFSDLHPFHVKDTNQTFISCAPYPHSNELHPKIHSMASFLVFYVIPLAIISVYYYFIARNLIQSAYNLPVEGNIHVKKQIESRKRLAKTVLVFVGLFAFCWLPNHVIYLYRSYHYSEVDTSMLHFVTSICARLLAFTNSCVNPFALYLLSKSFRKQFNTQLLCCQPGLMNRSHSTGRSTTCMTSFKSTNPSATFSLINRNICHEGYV

CSCC[C@H](NC(=O)[C@H](CC(C)C)NC(=O)[C@H](Cc1c[nH]cn1)NC(=O)CNC(=O)[C@@H](NC(=O)[C@H](C)NC(=O)[C@H](Cc1c[nH]c2ccccc12)NC(=O)[C@H](CCC(N)=O)NC(=O)CNC(=O)COC1CSCCCSCCCSCCCSC1)C(C)C)C(N)=O [BBN-99]
IC50 [1]: 1 to 6 nM | IC50 [2]: 1 to 6 nM | IC50 ([3]; PC-3 cells, read-out: IC50): 1 to 6 nM

CSCC[C@H](NC(=O)[C@H](CC(C)C)NC(=O)[C@H](Cc1cnc[nH]1)NC(=O)CNC(=O)[C@@H](NC(=O)[C@H](C)NC(=O)[C@H](Cc1c[nH]c2ccccc12)NC(=O)[C@H](CCC(N)=O)NC(=O)CCCCCCCNC(=O)CN1CCN(CC(=O)O)CCN(CC(=O)O)CCN(CC(=O)O)CC1)C(C)C)C(N)=O [111In-DOTA-8-Aoc-BBN[7-14]NH2] [metal not drawn]
initial tumor uptake retained ([4]; 4 hours): 46% | initial tumor uptake retained ([4]; 24 hours): 28% | Avg % ID, Blood [5]: 0.66 ± 0.13 % ID | Avg % ID, Carcass [5]: 5.01 ± 0.47 % ID | Avg % ID, Liver [5]: 1.02 ± 0.08 % ID | Avg % ID, Lung [5]: 0.07 ± 0.02 % ID | Avg % ID/gm, Heart [5]: 0.05 ± 0.02 % ID/gm | Avg % ID/gm, Kidney [5]: 2.37 ± 0.31 % ID/gm | Avg % ID/gm, L. Intestine [5]: 2.66 ± 1.07 % ID/gm | Avg % ID/gm, Lung [5]: 0.31 ± 0.07 % ID/gm | Avg % ID/gm, S. Intestine [5]: 4.43 ± 0.90 % ID/gm | Avg % ID, Blood ([6]; 1 hr): 0.92±0.58 % ID | Avg % ID, Carcass ([6]; 1 hr): 13.55 ± 6.05 % ID | Avg % ID, Liver ([6]; 1 hr): 1.41 ± 0.32 % ID | Avg % ID, Lung ([6]; 1 hr): 0.09 ± 0.07 % ID | Avg % ID, Pancreas ([6]; 1 hr): 3.49 ± 2.15 % ID | Avg % ID, Spleen ([6]; 1 hr): 0.09 ± 0.07 % ID | Avg % ID/gm, Liver ([6]; 1 hr): 1.34 ± 0.25 % ID/gm | Avg % ID/gm, Lung ([6]; 1 hr): 0.50 ± 0.39 % ID/gm | Avg % ID/gm, Pancreas ([6]; 1 hr): 18.80 ± 10.97 % ID/gm | Avg % ID/gm, Spleen ([6]; 1 hr): 1.39 ± 1.17 % ID/gm | Avg % ID, Carcass ([6]; 4 hrs): 2.92 ± 0.64 % ID | Avg % ID, L. Intestine ([6]; 4 hrs): 6.04 ± 2.05 % ID | Avg % ID, Liver ([6]; 4 hrs): 1.57 ± 0.72 % ID | Avg % ID, Muscle ([6]; 4 hrs): 0.0 ± 0.00 % ID | Avg % ID, Tumor ([6]; 4 hrs): 0.18 ± 0.17 % ID | Avg % ID/gm, Blood ([6]; 4 hrs): 0.27 ± 0.02 % ID/gm | Avg % ID/gm, Liver ([6]; 4 hrs): 1.44 ± 0.57 % ID/gm | Avg % ID/gm, Spleen ([6]; 4 hrs): 1.59 ± 0.27 % ID/gm | Avg % ID/gm, Stomach ([6]; 4 hrs): 0.96 ± 0.57 % ID/gm | excretion through the renal pathway ([6]; 24 hours p.i.): 87 % ID | Avg % ID, Carcass ([6]; 24 hrs): 1.69 ± 0.56 % ID | Avg % ID, Heart ([6]; 24 hrs): 0.00 ± 0.01 % ID | Avg % ID, Pancreas ([6]; 24 hrs): 1.19 ± 0.49 % ID | Avg % ID, Stomach ([6]; 24 hrs): 0.09 ± 0.02 % ID | Avg % ID/gm, Blood ([6]; 24 hrs): 0.10 ± 0.03 % ID/gm | Avg % ID/gm, Kidney ([6]; 24 hrs): 1.18 ± 0.14 % ID/gm | Avg % ID/gm, Lung ([6]; 24 hrs): 0.09 ± 0.07 % ID/gm | Avg % ID/gm, Pancreas ([6]; 24 hrs): 6.78 ± 1.15 % ID/gm | Avg % ID/gm, S. Intestine ([6]; 24 hrs): 0.89 ± 0.16 % ID/gm | Avg % ID/gm, Spleen ([6]; 24 hrs): 0.46 ± 0.20 % ID/gm | Avg % ID/gm, Stomach ([6]; 24 hrs): 0.30 ± 0.05 % ID/gm | Avg % ID, Carcass ([6]; 48 hrs): 0.57 ± 0.02 % ID | Avg % ID, Muscle ([6]; 48 hrs): 0.00 ± 0.00 % ID | Avg % ID/gm, Spleen ([6]; 48 hrs): 0.22 ± 0.22 % ID/gm | Avg % ID, Heart ([6]; 72 hrs): 0.00 ± 0.00 % ID | Avg % ID, Lung ([6]; 72 hrs): 0.00 ± 0.00 % ID | Avg % ID, Muscle ([6]; 72 hrs): 0.00 ± 0.00 % ID | Avg % ID/gm, Blood ([6]; 72 hrs): 0.01 ± 0.02 % ID/gm | Avg % ID/gm, Heart ([6]; 72 hrs): 0.01 ± 0.01 % ID/gm | Avg % ID/gm, Kidney ([6]; 72 hrs): 0.20 ± 0.02 % ID/gm | Avg % ID/gm, Muscle ([6]; 72 hrs): 0.01 ± 0.02 % ID/gm

CSCC[C@H](NC(=O)[C@H](CC(C)C)NC(=O)[C@H](Cc1c[nH]cn1)NC(=O)CNC(=O)[C@@H](NC(=O)[C@H](C)NC(=O)[C@H](Cc1c[nH]c2ccccc12)NC(=O)[C@H](CCC(N)=O)NC(=O)CCCCNC(=O)COC1CSCCCSCCCSCCCSC1)C(C)C)C(N)=O [RhCl2BBN-37]
IC50 [1]: 4.76 ± 0.79 nM | IC50 [2]: ~7 nM | IC50 ([3]; PC-3 cells, read-out: IC50): ~7 nM | IC50 ([3]; Prostate CA, PC-3, read-out: IC50 (Mean Value)): 7 nM

CC(C)C[C@H](NC(=O)[C@H](Cc1c[nH]cn1)NC(=O)CNC(=O)[C@@H](NC(=O)[C@H](C)NC(=O)[C@H](Cc1c[nH]c2ccccc12)NC(=O)[C@H](CCC(N)=O)NC(=O)CCCCNC(=O)COC1CSCCCSCCCSCCCSC1)C(C)C)C(N)=O [105Rh-BBN-61]
activity remaining associated with the cells [7]: less than 10% | IC50 [1]: 4.1 nM

CSCC[C@H](NC(=O)[C@H](CC(C)C)NC(=O)[C@H](Cc1c[nH]cn1)NC(=O)CNC(=O)[C@@H](NC(=O)[C@H](C)NC(=O)[C@H](Cc1c[nH]c2ccccc12)NC(=O)[C@H](CCC(N)=O)NC(=O)CCCCCCCNC(=O)CN1CCN(CC(=O)O)CCN(CC(=O)O)CCN(CC(=O)O)CC1)C(C)C)C(N)=O [In-DOTA-8-Aoc-BBN[7-14]NH2]
internalization [8]: rapid receptor mediated endocytosis | retention within cells [8]: remained retained within the cells for a prolonged time period

CSCC[C@H](NC(=O)[C@H](CC(C)C)NC(=O)[C@H](Cc1c[nH]cn1)NC(=O)CNC(=O)[C@@H](NC(=O)[C@H](C)NC(=O)[C@H](Cc1c[nH]c2ccccc12)NC(=O)[C@H](CCC(N)=O)NC(=O)CNC(=O)CNC(=O)COC1CSCCCSCCCSCCCSC1)C(C)C)C(N)=O [BBN-98]
IC50 [1]: 1 to 6 nM | IC50 [2]: 1 to 6 nM | IC50 ([3]; PC-3 cells, read-out: IC50): 1 to 6 nM
